Among the data in paper PMC2172197 are percent reduction of binding against GTP, percent less binding than wild-type atToc159 and fold higher binding than to Fd-protAHis values, retold here.

Where two headings read alike, the source gives them in different places.

Assay [1] concerns the target pFd-protAHis (preferredoxin fused to Staphylococcal protein A, COOH-terminal hexahistidine tag). The assay can be described thus: pull-down.
For assay [2] the target is unchanged. The assay can be described thus: pull-down. This is another data set of the same source.

On to “[35S]atToc159 (in vitro-translated soluble atToc159) (from UniProt O81283 1-1503) (receptor)”, for which the percent reduction of binding against GTP in assay [1] and in assay [2] was 20% throughout.

As for “[35S]atToc159-K868R (from UniProt O81283 1-1503) (receptor)”, the percent less binding than wild-type atToc159 in assay [1] worked out at 60%. Consider “[35S]atToc159G (in vitro-translated G domain of atToc159) (domain or fragment)”, for which the fold higher binding than to Fd-protAHis in assay [1] was found to be 3 fold.
